Results as given in paper PMC11084659, “The Development of CDC25A-Derived Phosphoseryl Peptides That Bind 14-3-3ε with High Affinities” (International Journal of Molecular Sciences, 2024).
Values belong to the binder of their own block, whether it stands above or below them. [ ]: non-standard residue; d: D form. pS = N[C@@H](COP(=O)(O)O)C(=O)O

Columns and labels:
Settings in all cases: both partners purified
[1] = molecular target: T1, (His)6-14-3-3ε (UniProt P62258 1-255); assay: SPR; Biacore 8K; 100 nM His6-14-3-3ε immobilized on NiCl2-activated NTA chip; peptides injected at 0-500 μM (depending on the peptide); 20 mM TRIS, 150 mM NaCl, 50 μM EDTA, 0.005% Tween 20, pH 7.4; steady-state binding model
T1 construct: 14-3-3 protein epsilon; also called His-tagged protein; source: bought: Novus Biologicals
T1 sequence (looked up): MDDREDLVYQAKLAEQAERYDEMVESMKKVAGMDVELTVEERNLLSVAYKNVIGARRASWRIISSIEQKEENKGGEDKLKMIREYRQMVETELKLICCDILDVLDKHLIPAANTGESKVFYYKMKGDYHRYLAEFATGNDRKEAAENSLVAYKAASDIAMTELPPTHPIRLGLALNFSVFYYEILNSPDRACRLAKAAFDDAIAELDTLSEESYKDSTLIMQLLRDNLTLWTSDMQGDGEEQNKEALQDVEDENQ

[2] = molecular target: T1, (His)6-14-3-3ε; assay: as above; remark: listed apart in the source
[3] = molecular target: T1, (His)6-14-3-3ε; assay: differential scanning fluorimetry; 14-3-3ε 2 µM with peptide 30 μM, SYPRO-orange; 20 mM TRIS, 150 mM NaCl, 1 mM DTT, pH 7.4; ΔTm = Tm with peptide minus Tm of 14-3-3ε alone

Kd [1]: 9.05 µM
Kd [2]: 6.56 ± 2.16 µM
B1: pS(174–182) (peptide)
peptide: Ac-QRQN[pS]APAR-NH2
SMILES: CC(=O)N[C@@H](CCC(N)=O)C(=O)N[C@@H](CCCNC(=N)N)C(=O)N[C@@H](CCC(N)=O)C(=O)N[C@@H](CC(N)=O)C(=O)N[C@@H](COP(=O)(O)O)C(=O)N[C@@H](C)C(=O)N1CCC[C@H]1C(=O)N[C@@H](C)C(=O)N[C@@H](CCCNC(=N)N)C(N)=O
notes: CDC25A residues 174-182, with phosphoserine at 178; also called Ac-CDC25A(174–182)-NH2; source: synthetic peptide (Biosynth International Inc.), >95% purity

Kd [1]: 5.23 µM
B2: [Lys^177]pS(174–182) (peptide)
peptide: Ac-QRQK[pS]APAR-NH2
SMILES: CC(=O)N[C@@H](CCC(N)=O)C(=O)N[C@@H](CCCNC(=N)N)C(=O)N[C@@H](CCC(N)=O)C(=O)N[C@@H](CCCCN)C(=O)N[C@@H](COP(=O)(O)O)C(=O)N[C@@H](C)C(=O)N1CCC[C@H]1C(=O)N[C@@H](C)C(=O)N[C@@H](CCCNC(=N)N)C(N)=O
notes: CDC25A residues 174-182, with phosphoserine at 178 and Asn177 replaced by Lys; source: synthetic peptide (Biosynth International Inc.), >95% purity

Kd [1]: 58.3 µM
B3: [Phe^179]pS(174–182) (peptide)
peptide: Ac-QRQN[pS]FPAR-NH2
SMILES: CC(=O)N[C@@H](CCC(N)=O)C(=O)N[C@@H](CCCNC(=N)N)C(=O)N[C@@H](CCC(N)=O)C(=O)N[C@@H](CC(N)=O)C(=O)N[C@@H](COP(=O)(O)O)C(=O)N[C@@H](Cc1ccccc1)C(=O)N1CCC[C@H]1C(=O)N[C@@H](C)C(=O)N[C@@H](CCCNC(=N)N)C(N)=O
notes: CDC25A residues 174-182, with phosphoserine at 178 and Ala179 replaced by Phe; source: synthetic peptide (Biosynth International Inc.), >95% purity

Kd [1]: 0.36 µM
B4: [Phe^176]pS(174–182) (peptide)
peptide: Ac-QRFN[pS]APAR-NH2
SMILES: CC(=O)N[C@@H](CCC(N)=O)C(=O)N[C@@H](CCCNC(=N)N)C(=O)N[C@@H](Cc1ccccc1)C(=O)N[C@@H](CC(N)=O)C(=O)N[C@@H](COP(=O)(O)O)C(=O)N[C@@H](C)C(=O)N1CCC[C@H]1C(=O)N[C@@H](C)C(=O)N[C@@H](CCCNC(=N)N)C(N)=O
notes: CDC25A residues 174-182, with phosphoserine at 178 and Gln176 replaced by Phe; source: synthetic peptide (Biosynth International Inc.), >95% purity
ΔTm [3]: 1.08 °C

Kd [1]: 116 µM
B5: [Tyr^179]pS(174–182) (peptide)
peptide: Ac-QRQN[pS]YPAR-NH2
SMILES: CC(=O)N[C@@H](CCC(N)=O)C(=O)N[C@@H](CCCNC(=N)N)C(=O)N[C@@H](CCC(N)=O)C(=O)N[C@@H](CC(N)=O)C(=O)N[C@@H](COP(=O)(O)O)C(=O)N[C@@H](Cc1ccc(O)cc1)C(=O)N1CCC[C@H]1C(=O)N[C@@H](C)C(=O)N[C@@H](CCCNC(=N)N)C(N)=O
notes: CDC25A residues 174-182, with phosphoserine at 178 and Ala179 replaced by Tyr; source: synthetic peptide (Biosynth International Inc.), >95% purity

Kd [1]: 0.41 µM
B6: [Tyr^176]pS(174–182) (peptide)
peptide: Ac-QRYN[pS]APAR-NH2
SMILES: CC(=O)N[C@@H](CCC(N)=O)C(=O)N[C@@H](CCCNC(=N)N)C(=O)N[C@@H](Cc1ccc(O)cc1)C(=O)N[C@@H](CC(N)=O)C(=O)N[C@@H](COP(=O)(O)O)C(=O)N[C@@H](C)C(=O)N1CCC[C@H]1C(=O)N[C@@H](C)C(=O)N[C@@H](CCCNC(=N)N)C(N)=O
notes: CDC25A residues 174-182, with phosphoserine at 178 and Gln176 replaced by Tyr; source: synthetic peptide (Biosynth International Inc.), >95% purity
ΔTm [3]: 1.1 °C

Kd [1]: 0.22 µM
B7: pS peptide, CDC25A residues 173–186 (peptide)
peptide: Ac-TQRQN[pS]APARMLSS-NH2
SMILES: CSCC[C@H](NC(=O)[C@H](CCCNC(=N)N)NC(=O)[C@H](C)NC(=O)[C@@H]1CCCN1C(=O)[C@H](C)NC(=O)[C@H](COP(=O)(O)O)NC(=O)[C@H](CC(N)=O)NC(=O)[C@H](CCC(N)=O)NC(=O)[C@H](CCCNC(=N)N)NC(=O)[C@H](CCC(N)=O)NC(=O)[C@@H](NC(C)=O)[C@@H](C)O)C(=O)N[C@@H](CC(C)C)C(=O)N[C@@H](CO)C(=O)N[C@@H](CO)C(N)=O
notes: CDC25A residues 173-186, with phosphoserine at 178; also called parent pS peptide; source: synthetic peptide (Biosynth International Inc.), >95% purity
ΔTm [3]: 0.35 °C
